Data reported in patent US8173397B2, “Folded recombinant catalytic fragments of multidomain serine proteases, preparation and uses thereof” (TargetEx Kft., priority 2002, dated 2012).

Experiments:
live C3 = molecular target: T1, live C3 (Homo sapiens, UniProt P01024); experiment: Cleavage of live C3 by MASP fragments, SDS-PAGE densitometry; format: biochemical; details: from kcat/KM values
T1 construct: was isolated from fresh human serum; from tissue; host or cells: fresh human serum
Protocol: C2, C3, C3(NH3), C4 cleavage—Serial dilutions of MASP-1 and MASP-2 fragments ranging between concentrations of 1 μM and 10 pM were incubated at 37° C. in 20 mM HEPES, 140 mM NaCl, pH 7.4 with C2, C3, C3(NH3) or C4 at typical concentrations of 0.5-1 μM. The cleavage was followed by SDS-PAGE under reducing conditions. Desirable concentrations of the MASP fragments for further detailed kinetic analysis were chosen to be where half of the protein substrates were hydrolyzed during the first 20 minutes of incubation. The protein substrates C2, C3, C3(NH3) or C4 were then incubated with the selected concentrations of the MASP fragments at 37° C. in 20 mM HEPES, 140 mM NaCl, pH 7.4. Typically 11-13 samples were taken at varying time periods but always within 50 minutes from the beginning of the reaction. Cleavages rates were quantified by measuring the diminution of the cleaved chain visualized by Coomassie stained SDS-PAGs using a GEL DOC 1000 instrument and Molecular Analyst Software for densitometric calculations (Bio-Rad, Hercules, Calif., USA). The reactions were assumed to be of the Michaelis-Menten type. In the case of C3 and C3(NH3) cleavage a further reasonable assumption of KM>>[substrate] was made. […]

C4 = C4 cleavage by MASP fragments; format: biochemical, human; details: 37° C., pH 7.4; averages of 2 to 4 experiments, standard errors
Protocol: C2, C3, C3(NH3), C4 cleavage—Serial dilutions of MASP-1 and MASP-2 fragments ranging between concentrations of 1 μM and 10 pM were incubated at 37° C. in 20 mM HEPES, 140 mM NaCl, pH 7.4 with C2, C3, C3(NH3) or C4 at typical concentrations of 0.5-1 μM. The cleavage was followed by SDS-PAGE under reducing conditions. Desirable concentrations of the MASP fragments for further detailed kinetic analysis were chosen to be where half of the protein substrates were hydrolyzed during the first 20 minutes of incubation. The protein substrates C2, C3, C3(NH3) or C4 were then incubated with the selected concentrations of the MASP fragments at 37° C. in 20 mM HEPES, 140 mM NaCl, pH 7.4. Typically 11-13 samples were taken at varying time periods but always within 50 minutes from the beginning of the reaction. Cleavages rates were quantified by measuring the diminution of the cleaved chain visualized by Coomassie stained SDS-PAGs using a GEL DOC 1000 instrument and Molecular Analyst Software for densitometric calculations (Bio-Rad, Hercules, Calif., USA). The reactions were assumed to be of the Michaelis-Menten type. In the case of C3 and C3(NH3) cleavage a further reasonable assumption of KM>>[substrate] was made. The constants KM, kcat and […] were estimated by unbiased non-linear regression methods regressing the data on the following equations: t=([S0]−[S]+KMln([S0]/[S]))/(kcat[E0]) or in the case of C3 and C3(NH3) cleavage on [S]=[S0]exp(−t[E0]kcat/KM).

P1 Arg oligopeptide = experiment: Competing oligopeptide substrate library; format: biochemical; details: same conditions
Protocol: The specificities of the MASP-1 and MASP-2 CCP1-CCP2-SP fragments were tested on a competing oligopeptide library applying the method described before (Antal, 2001).
To further investigate the range of substrate specificity and relative specific activities of MASP-1 and MASP-2 we applied a competing oligopeptide substrate library. (Antal, 2001). This library contains a mixture of seven oligopeptides (each 13 amino acids in length) with different cleavage sites (P1) for both trypsin and chymotrypsin-like enzymes (His-Ala-Ala-Pro-Xxx-Ser-Ala-Asp-Ile-Gln-Ile-Asp-Ile, SEQ ID NO:18, where Xxx could be Lys, Arg, Tyr, Leu, Phe, Trp or Pro). The individual peptide substrates compete for the protease under investigation, in our cases for either the MASP-1 CCP1-CCP2-SP or the MASP-2 CCP1-CCP2-SP fragment. […] The MASP-1 catalytic fragment (CCP1-CCP2-SP) exerted a substantially larger activity on the Arg oligopeptide substrate than the MASP-2 fragment (FIG. 7). […] MASP-2 also preferred the Arg substrate to the Lys one, but the degree of preference was much less than that of MASP-1. A very similar specificity profile was obtained for trypsin in this oligopeptide library system.

[1] = Autoactivation of MASP fragments followed on reducing SDS-PAGE; format: biochemical; details: after renaturation / purification
Excerpt: The catalytic region of MASP-1 and MASP-2, consisting of the two complement control protein modules and the serine protease domain (CCP1-CCP2-SP) (FIG. 3.) was expressed in E. coli BL-21 cells using the pET-17b expression vector. In the case of MASP-2, truncated fragments of the catalytic region (the serine protease domain with one CCP module and the serine protease domain alone) (FIG. 3) were also expressed in the same expression system. Since the recombinant proteins accumulated as inclusion bodies inside the bacterial cells, renaturation procedures were needed to restore the native, folded structure (see Materials and Methods). The renatured recombinant proteins were purified by ion exchange chromatography on Q-Sepharose Fast Flow and Mono-S columns. The renaturation and the purification procedures were followed by SDS-PAGE and the purified proteins were subjected to N-terminal sequencing. Before renaturation the inclusion body proteins yielded single bands on the reducing SDS-PAGE corresponding to the zymogen form of the enzymes. […] The MASP-1 CCP1-CCP2-SP fragment co-purified with a minor contaminant, which migrated on SDS-PAGE as a band of 24 kDa under reducing and at 39 kDa under non-reducing conditions. […] The cleavage occurred at the Arg^504-Asp^505 bond removing the histidine from the catalytic triad and thus causing the loss of its enzymatic activity. […]

T1 sequence (P01024 672-1663 limits assumed): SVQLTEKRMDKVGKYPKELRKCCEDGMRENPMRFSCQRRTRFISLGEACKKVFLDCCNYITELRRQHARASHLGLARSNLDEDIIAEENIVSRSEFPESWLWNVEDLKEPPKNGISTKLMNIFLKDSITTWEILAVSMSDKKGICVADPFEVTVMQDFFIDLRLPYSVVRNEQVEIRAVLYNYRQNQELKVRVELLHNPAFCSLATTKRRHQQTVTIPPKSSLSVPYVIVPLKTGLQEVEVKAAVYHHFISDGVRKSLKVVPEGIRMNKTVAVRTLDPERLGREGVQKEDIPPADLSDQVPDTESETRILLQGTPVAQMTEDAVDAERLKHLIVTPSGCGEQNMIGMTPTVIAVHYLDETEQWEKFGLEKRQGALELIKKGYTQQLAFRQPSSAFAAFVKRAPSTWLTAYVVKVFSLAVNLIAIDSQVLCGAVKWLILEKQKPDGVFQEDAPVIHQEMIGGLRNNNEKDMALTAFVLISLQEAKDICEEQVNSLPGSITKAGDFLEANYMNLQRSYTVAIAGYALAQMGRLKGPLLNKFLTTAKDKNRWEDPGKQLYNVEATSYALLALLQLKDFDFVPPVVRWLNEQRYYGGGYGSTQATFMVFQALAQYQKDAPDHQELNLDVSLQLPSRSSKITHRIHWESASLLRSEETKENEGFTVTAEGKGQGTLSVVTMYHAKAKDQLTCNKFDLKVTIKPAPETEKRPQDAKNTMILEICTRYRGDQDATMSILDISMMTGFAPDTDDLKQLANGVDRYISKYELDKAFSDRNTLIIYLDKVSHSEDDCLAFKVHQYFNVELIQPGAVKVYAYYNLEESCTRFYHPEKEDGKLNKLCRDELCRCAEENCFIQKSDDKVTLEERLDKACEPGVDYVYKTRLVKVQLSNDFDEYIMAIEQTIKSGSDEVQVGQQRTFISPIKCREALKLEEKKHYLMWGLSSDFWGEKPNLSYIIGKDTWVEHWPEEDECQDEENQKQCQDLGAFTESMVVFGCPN
T1 sequence (P01024 23-667 partner limits assumed): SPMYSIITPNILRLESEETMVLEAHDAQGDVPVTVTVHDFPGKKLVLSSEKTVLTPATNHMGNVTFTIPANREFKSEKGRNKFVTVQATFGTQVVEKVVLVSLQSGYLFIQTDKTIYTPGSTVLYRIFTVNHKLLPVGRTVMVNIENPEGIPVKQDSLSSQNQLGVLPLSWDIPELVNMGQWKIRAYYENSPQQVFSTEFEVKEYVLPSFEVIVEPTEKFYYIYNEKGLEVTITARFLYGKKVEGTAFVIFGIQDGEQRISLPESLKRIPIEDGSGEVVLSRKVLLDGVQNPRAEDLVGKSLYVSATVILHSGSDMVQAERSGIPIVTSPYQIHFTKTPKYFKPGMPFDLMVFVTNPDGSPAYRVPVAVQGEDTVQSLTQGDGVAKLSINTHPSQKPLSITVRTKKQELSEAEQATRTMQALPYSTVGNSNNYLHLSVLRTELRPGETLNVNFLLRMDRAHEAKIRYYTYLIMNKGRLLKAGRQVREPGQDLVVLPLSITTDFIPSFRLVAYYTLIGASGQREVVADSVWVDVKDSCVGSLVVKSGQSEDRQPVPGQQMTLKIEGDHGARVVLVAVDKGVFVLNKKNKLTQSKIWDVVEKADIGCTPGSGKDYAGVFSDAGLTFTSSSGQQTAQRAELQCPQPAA

B1: MASP-1γB: E. coli-expressed, refolded human MASP-1 CCP1-CCP2-SP fragment, Gly298 to Asn699 with N-terminal Ala-Ser-Met-Thr tag (protein)
chain 1: ASMTGNECPELQPPVHGKIEPSQAKYFFKDQVLVSCDTGYKVLKDNVEMDTFQIECLKDGTWSNKIPTCKIVDCRAPGELEHGLITFSTRNNLTTYKSEIKYSCQEPYYKMLNNNTGIYTCSAQGVWMNKVLGRSLPTCLPVCGLPKFSRKLMAR
chain 2: IFNGRPAQKGTTPWIAMLSHLNGQPFCGGSLLGSSWIVTAAHCLHQSLDPEDPTLRDSDLLSPSDFKIILGKHWRLRSDENEQHLGVKHTTLHPQYDPNTFENDVALVELLESPVLNAFVMPICLPEGPQQEGAMVIVSGWGKQFLQRFPETLMEIEIPIVDHSTCQKAYAPLKKKVTRDMICAGEKEGGKDACAGDSGGPMVTLNRERGQWYLVGTVSWGDDCGKKDRYGVYSYIHHNKDWIQRVTGVRN
proteolytic action on 'live' C3 relative to 'dead' C3 (fold less) (live C3): about 20 fold
C4 kcat (C4): 0.002 ± 0.001 s⁻¹
efficiency of digestion of the P1 Arg peptide relative to the corresponding fragment of MASP-2 (P1 Arg oligopeptide): 4-5 fold
autoactivation, in words [1]: fully activated
